This data set is described as follows: soluble on expression in E. coli; label from the status in PepcDB or PDB records.
“MWNMLIVAMCLALLGCLQAQELQGHVSIILLGATGDLAKKYLWQGLFQLYLDEAGRGHSFSFHGAALTAPKQGQELMAKALESLSCPKDMAPSHCAEHKDQFLQLSQYRQLKTAEDYQALNKDIEAQLQHAGLREAGRIFYFSVPPFAYEDIARNINSSCRPGPGAWLRVVLEKPFGHDHFSAQQLATELGTFFQEEEMYRVDHYLGKQAVAQILPFRDQNRKALDGLWNRHHVERVEIIMKETVDAEGRTSFYEEYGVIRDVLQNHLTEVLTLVAMELPHNVSSAEAVLRHKLQVFQALRGLQRGSAVVGQYQSYSEQVRRELQKPDSFHSLTPTFAGVLVHIDNLRWEGVPFILMSGKALDERVGYARILFKNQACCVQSEKHWAAAQSQCLPRQLVFHIGHGDLGSPAVLVSRNLFRPSLPSSWKEMEGPPGLRLFGSPLSDYYAYSPVRERDAHSVLLSHIFHGRKNFFITTENLLASWNFWTPLLESLAHKAPRLYPGGAENGRLLDFEFSSGRLFFSQQQPEQLVPGPGPAPMPSDFQVLRAKYRESPLVSAWSEELISKLANDIEATAVRAVRRFGQFHLALSGGSSPVALFQQLATAHYGFPWAHTHLWLVDERCVPLSDPESNFQGLQAHLLQHVRIPYYNIHPMPVHLQQRLCAEEDQGAQIYAREISALVANSSFDLVLLGMGADGHTASLFPQSPTGLDGEQLVVLTTSPSQPHRRMSLSLPLINRAKKVAVLVMGRMKREITTLVSRVGHEPKKWPISGVLPHSGQLVWYMDYDAFLG”: the “soluble on expression in E. coli” value was “soluble”. For “MSLKALARFGKAFGGYKMIHVPQPICGPEDVVTEIKAAAICGADMKHYNVDSGSDEFNSIRGHEFAGCIAQVGEKVKDWKVGQRVVSDNSGHVCGVCPACEQGDFLCCTEKVNLGLDNNTWGGGFSKYCLVPGEILKIHRHALWEIPDGVDYEDAAVLDPICNAYKSIAQQSKFLPGQDVVVIGTGPLGLFSVQMARIMGAVNIVVVGLQEDVAVRFPVAKELGATAVVNGSTEDVVARCQQICGKDNLGLVIECSGANIALKQAIEMLRPNGEVVRVGMGFKPLDFSINDITAWNKSIIGHMAYDSTSWRNAIRLLASGAIKVKPMITHRIGLSQWREGFDAMVDKTAIKVIMTYDFDEGHHHHHH”, the “soluble on expression in E. coli” value is given as “not soluble”. Then “MSTPIIPWMGGKRRLADRLIPLFPPHECYVEVFAGGAALYFMRPQAAPVEVLNDINGDLVNLYRVVQNHLEEFVRQFKWALSSRQVFEWQKMTRPETLTDIQRAARFFYLQHHAFAGKVSGQTFGTATTGPAINLLRIEENLSAAWQRLSGTYVENLPWLECAERYDRPQTFHYMDPPYWQTAGYGVDYPFENYERMADFMRTCKGKVMVSINDHPDIRRVFEEFHFETVDIRYTSSNQRRGRTDVVGELVIMNWEP”, with “not soluble”. Turning to “MNTKPKTIATSSTLELPKLHFQYDNTTTTFTEEEKLIDLKPTSEANYVKFWYNIVRNTYSQTHTNGSPVKPYLVANIERTIDTRLGEVFLHKKERSEHWASIAWFFNIDVKGKLVEKIIIRMSGIEELILNSGTTQIGENLNLISKSTRIPIEQNLTIDNPQLEVFYIMALWTISLDARAFKADLEDGINSESFSVEVFWKSKQDHNQTTISI”, the “soluble on expression in E. coli” value is “not soluble”. The entry for “MAEHNELGKAGENAAVAYLEEHGYLIRHRNWRKGHFELDIVAAKENELVIVEVKTRSNTLFAQPEEAVDLPKIKRTVRAADAYMKLFQIDVPVRFDIITVIGENGNFRIDHIKEAFYPPLF” is “not soluble”; for “MDAQTFKTAIVRRRLVDVLMNPELKATLVLKNGLVINVVTREIYPADVAVYDEYILKVGDASDLIGPETEVVDLQGKYYVSPGFIDSHMHFESSMLTISEFSRLSIPSGTTTLVADPHEIGNALGPVGIKAMAEETKVVPNRVYLVVPALTPDCPGLETAGYDITSRDMPEILNYPNVIGIGELQGFSNAKYVYKYTPEIITDLIASTTYAKSIGKIVDGNAPELFGSELAAHLIAAGTEASCHETTTKEECVEKLRYGMYVFMREGSTQKNMAECIRAVTEEGLDSRRLIGATDDMVAEDLAKNGHMNWVVARIIKQGIDPVEAIQMVTINPATYFGLKHVGVLAPGKMADIVVISDLMDMKVEKVYIGGKLVAEKGKMVVNIPKYTYPEEVKHSVKCKPVTAEALEIKATGSNAVVRTIGLIPDQNLTESFEFTVPVSGGVAQPDLTQDVLPIAVVERYGRNGSIGRAFVRGFGLKGGAFAESVSHDAHNIIVVGTSYQDMALAVNRVIEMGGGVAVVKNGRVLGDLRLPVGGLITDELDGYELSRKIAELHRLTAVELGCTVHAPFMHLSFLALTTSPKWKITDQGLIDVNSFAIIPPVK” it is “soluble”. For the sequence “MRKGCFGLVSLVLLLLVGCRSHPEIPVNDEQSLVMESSLLAAGISAEKPFLSTSDIQPSASSTLYNERQEPVTVHYRFYWYDARGLEMHPLERPRSVTIPAHSAVTLYGSANFLGAHKVRLYLYLLEHHHHHH”, the “soluble on expression in E. coli” value is on record as “soluble”. The entry for “MDTMRQRILVVDDDASLAEMLTIVLRGEGFDTAVIGDGTQALTAVRELRPDLVLLDLMLPGMNGIDVCRVLRADSGVPIVMLTAKTDTVDVVLGLESGADDYIMKPFKPKELVARVRARLRRNDDEPAEMLSIADVEIDVPAHKVTRNGEQISLTPLEFDLLVALARKPRQVFTRDVLLEQVWGYRHPADTRLVNVHVQRLRAKVEKDPENPTVVLTVRGVGYKAGPPTSGSHHHHHH” is “soluble”. The entry for “MFYAQFVLAKKGPLAKVWLAAHWEKKLTKAQIFETDVPQAIEEVIRPKVKMALRTVGHLLLGIVRIYSKKTRYLLADTNEAYQKMKINFRNGFSFEVDIPENAEIEEDFSNFIDKYNITVPEFHDADYNEQLIMANVSRREDITMKETVNFNVEFNIDADFDGFGDEGESWQLDHLYGSVEPLSLRPTPQPESLMEVERDRDVAANGTEISRIDADSVIFSEGPTRPNLIFDNQEGGNFMPEMNLKVENQTLENDGGVGPADMFSSMIHPVREHAVADVQNDDGMDFDYQPFEPENVEPSRPQSPESFALEPLDVEHMEGRKKRQRKARKLIVDAETMISNDAFREQQEDFSDTMRVVEMAPPTRKMFNLCVSGDLQHLSREPGCKMFNRELLQRYRRCLVTREFDLNYTMQELSDSSSFTPSMEAQAEPWEDLNLNEDIQEDIQAQGPAVDEFFNDVRMDDDDDRQPAQEMDFGDNFDFPQEVEHQECAPIPIQSGFAGENKENEDAEDWSDPFGSSNSSRRGQLEAYGFGNTSTYKEDDGKWAKRAKHILKKVSADIETSGQADFSSVTATAKNRKQAAEQFYSLLTLAKSQAISVDQSEPYGEIVIRPGANFKEACPLSSPKPMGLGNTMENSTMRTPMRPV” is “not soluble”. Then “MGSDKIHHHHHHMFTQATFDFLAALEANNERDWFKANQHTYEDKVRTPALALIEAAAPAIVALSPRLTAVAKKVGGSLMRPQRDTRFGHDKRPYKTNVGIQFRHFQGKDVHAPGLYLHIANDGCFVAAGIWHPESKALNAIRSCIDENPATYQKALKALTDSGFAMDGDSLSRPPRGYDKRHPLIDELKRKDFIAVKSLTNHEVLQPDFASRLVAEFEHCQQLMRYLCFALELDY”, with “not soluble”. In the case of “MNITATSLDSEDELSIKYMDAVDNINILKRYGCDIQHEVDVHTMSFDNSLSLQRYDRIVFNFPHAGSRFFGRELSSRAIESHKELVRGFLENAKEMLEEDGEIHITHKTTYPFSDWGIKKLGKGEGLKLLKKSKFELSHYPGYITKRGSGGRRSDDYFPVDVDPCDLKGFEVLEIYHPSMSDGFVNSVMVARKLTDRLIKYEWCTGTRSLNSLKKTRQTEPDQFNKREINRSGPGQVAEEEEEVVAVMMMMTSLGGGAGGGGGGGGSGGGRFVTYPPPLSVPPSAPQSPNFSGGLRSQPSFLVEQEKYLSELLAERHKLTPFLPVLPHVCRLMNQEILRVTTLLENALSQSRFDHPSPLASGGIFQNSRADMNGWASQFPSERSVSSSPAPNWLNSPGSSSGLIVKRTIRVDIPVDKYPNYNFVGRLLGPRGNSLKRVEASTDCRVLIRGRGSIKDPIKEDMMRGKPGYEHLNEPLHILVEAELPIEIVDARLMQAREILDDLLTPVEETHDFYKKQQLRELALLNGSLREEGSPMSGSISPYNSLGMKRAKTRG”, the “soluble on expression in E. coli” value is recorded as “soluble”. The entry for “MTKENICIVFGGKSAEHEVSILTAQNVLNAIDKDKYHVDIIYITNDGDWRKQNNITAEIKSTDELHLENGEALEISQLLKESSSGQPYDAVFPLLHGPNGEDGTIQGLFEVLDVPYVGNGVLSAASSMDKLVMKQLFEHRGLPQLPYISFLRSEYEKYEHNILKLVNDKLNYPVFVKPANLGSSVGISKCNNEAELKEGIKEAFQFDRKLVIEQGVNAREIEVAVLGNDYPEATWPGEVVKDVAFYDYKSKYKDGKVQLQIPADLDEDVQLTLRNMALEAFKATDCSGLVRADFFVTEDNQIYINETNAMPGFTAFSMYPKLWENMGLSYPELITKLIELAKERHQDKQKNKYKIDRSHHHHHH” is “soluble”; for “MQRIRIIDSHTGGEPTRLVIGGFPDLGQGDMAERRRLLGERHDAWRAACILEPRGSDVLVGALLCAPVDPEACAGVIFFNNSGYLGMCGHGTIGLVASLAHLGRIGPGVHRIETPVGEVEATLHEDGSVSVRNVPAYRYRRQVSVEVPGIGRVSGDIAWGGNWFFLVAGHGQRLAGDNLDALTAYTVAVQQALDDQDIRGEDGGAIDHIELFADDPHADSRNFVLCPGKAYDRSPCGTGTSAKLACLAADGKLLPGQPWRQASVIGSQFEGRYEWLDGQPGGPIVPTIRGRAHVSAEATLLLADDDPFAWGIRR” it is “soluble”; for “MAKNSPQDLINREIFSTNLNMLMAKKNIKQIDIHNKLGIPKSTITGYVKGRSLPTAGNVQKLADFFGVLKSDIDPRFDSNNIETNSNIIPSTLQKVTSTLSQLEHKRQLNVLDYAETQLEQQNTVEEPQATYYTYNYYDHAASAGTGQYLNDVQVETIELPVDYDADFVIPVYGDSMEPEYHSGDYVFIKLSINLSDGDIGVFEYYGDAYIKQLVINDSGAFLHSLNDKYDDILIDRDSDFRIIGEVIGSFTSKS” it is “not soluble”. The entry for “MGSDKIHHHHHHMAEDLTPEGGDRAPSKDGSVPAYAGRQSADPGWEWGKIRGDFWKHRNEKPLYSIDGSNVDKYAEQLTPGQVQLVKQKKGYRMDVYPSHRECQASDFVAQNSKANLTGAKLDSTGEQLQTAILPGVPFPQPKNGAEAMLNYLMRYRGEGIEWPSVVTTVSPRPGSSDWIDAISTATQYFPASKQGKRTPHDVDQLSSATFFKMESPPALAGQAFVQRQFFNKDPETFYYFPGQRRVRRMPAYTHDAPAIGFENQYLIDEANMFFGAIDRFDWKLAGKKEMIVPYNAFGMYKFNDKLHDVVTPDGIAAANRRYEMHRVWVVEATLKPSARHVASKKVFYLDEDSWLALVANDYDAQGKLWRVRESYPIPVWELGGACDNEPFAQYDLINGRYVTDQSTIGQGKDIRWYEKTNDPRFKPDFFTSESLRSVSER” is “not soluble”. The entry for “GPVDEVSFHSVVQQLKARQQATDEQLEELQEAFAKVQERNSVFSDWLKISAMLCAATLALSQVVKMAKAVKQMVKPDLVRVQLDEQEQGPYNETARVKPKTLQLLDIQGPNPVMDFEKYVAKHVTAPIGFVYPTGVSTQTCLLVRGRTLVVNRAMAESDWTSIVVRGVTHARSTVKILAIAKAGKETDVSFIRLSSGPLFRDNTSKFVKAGDVLPTGAAPVTGIMNTDIPMMYTGTFLKAGVSVPVETGQTFNHCIHYKANTRKGWSGSALLADLGGSKKILGIHSAGSMGIAAASIVSQEMIRAVVNAFEPQ” is “soluble”. “MGSDKIHHHHHHMQKTPALLSDIGNNEDASVYQISPDLALVQTLDFITPIVDSAYHFGAIAAANALSDVFAMGAEVINALNIVGFDTCNHDLNILKELLEGANDKVKECNALVVGGHTIESTELFFGLSVTGKVHPSKFIANNTSKIGDCIILTKPLGTGILSTALKAQMLNQKHLDIMLKNMIELNYKASQIALKFHPSAMSDVTGFGLLGHLKEMLNKNISFEIFESELPFLDGVKEYFNMGLIPAGAYKNLEFIKELTPDLNEEKLLLCDPQTSGGLLISISEKDSLECLKKLEDENIQAKIIAKVVNKQENDIIIS”: the “soluble on expression in E. coli” value is given as “not soluble”.

For the origin of these results see the DeepSol protein solubility set.
